Measurements as given in US20060292149A1 (LIFE SCIENCES RESEARCH PARTNERS, published 2006).
Substitutions are numbered along the chain they refer to. Values belong to the binder of their own block, whether it stands above or below them.

Tests used:
recombinant FVIII = target: T1, recombinant FVIII (human, UniProt P00451 20-2351); assay: SPR (BIAcore), antibody immobilised on CM5 chip, FVIII infused
T1 chain: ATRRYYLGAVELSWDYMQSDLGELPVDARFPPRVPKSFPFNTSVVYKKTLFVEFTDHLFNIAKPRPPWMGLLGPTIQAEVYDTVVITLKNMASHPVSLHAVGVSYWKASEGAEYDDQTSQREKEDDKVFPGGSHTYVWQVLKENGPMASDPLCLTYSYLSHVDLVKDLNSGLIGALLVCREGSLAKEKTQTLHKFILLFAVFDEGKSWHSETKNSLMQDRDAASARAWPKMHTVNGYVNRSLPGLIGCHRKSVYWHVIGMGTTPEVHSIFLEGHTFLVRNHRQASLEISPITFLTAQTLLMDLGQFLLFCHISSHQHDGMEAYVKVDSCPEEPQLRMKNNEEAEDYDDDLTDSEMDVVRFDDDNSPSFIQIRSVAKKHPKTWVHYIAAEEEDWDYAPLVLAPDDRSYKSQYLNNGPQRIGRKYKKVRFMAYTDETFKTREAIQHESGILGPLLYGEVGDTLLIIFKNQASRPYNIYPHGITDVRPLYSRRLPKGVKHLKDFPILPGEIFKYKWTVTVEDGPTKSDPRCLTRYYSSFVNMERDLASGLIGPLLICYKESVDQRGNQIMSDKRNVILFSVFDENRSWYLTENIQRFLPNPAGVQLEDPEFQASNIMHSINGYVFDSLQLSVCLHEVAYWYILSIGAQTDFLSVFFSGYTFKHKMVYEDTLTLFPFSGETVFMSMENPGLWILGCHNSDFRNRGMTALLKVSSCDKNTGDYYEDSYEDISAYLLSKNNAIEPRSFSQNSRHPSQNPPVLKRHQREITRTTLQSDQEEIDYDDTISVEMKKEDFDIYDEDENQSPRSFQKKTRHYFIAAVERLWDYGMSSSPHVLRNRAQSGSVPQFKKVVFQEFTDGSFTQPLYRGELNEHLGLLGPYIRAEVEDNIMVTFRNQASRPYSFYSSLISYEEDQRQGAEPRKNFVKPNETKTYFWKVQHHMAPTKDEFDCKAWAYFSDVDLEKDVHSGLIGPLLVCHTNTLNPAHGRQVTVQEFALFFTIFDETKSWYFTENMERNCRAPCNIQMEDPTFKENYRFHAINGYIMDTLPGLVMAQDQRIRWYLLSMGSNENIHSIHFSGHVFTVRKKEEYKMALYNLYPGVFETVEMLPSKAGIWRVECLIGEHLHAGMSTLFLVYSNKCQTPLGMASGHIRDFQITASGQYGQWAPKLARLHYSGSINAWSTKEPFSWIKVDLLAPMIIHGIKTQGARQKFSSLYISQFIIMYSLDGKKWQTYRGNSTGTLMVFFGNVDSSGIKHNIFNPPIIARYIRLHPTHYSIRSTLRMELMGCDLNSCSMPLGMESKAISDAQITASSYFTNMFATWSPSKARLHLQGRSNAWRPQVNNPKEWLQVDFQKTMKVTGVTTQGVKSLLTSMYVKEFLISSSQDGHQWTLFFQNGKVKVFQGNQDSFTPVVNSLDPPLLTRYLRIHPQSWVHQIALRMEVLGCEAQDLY

[1] = target: Factor VIII in a pool of normal human plasma (human), P00451; assay: cell-based or functional assay
[2] = target: recombinant FVIII (human), P00451; assay: cell-based or functional assay

B1: CHO-recKRIX-1 (recombinant Krix-1 produced in CHO cells) (antibody, V domains shown)
VH: QVQLVQSGAEVKKPGASVKVSCKTSGYNFTGYSASGHIFTAYSVHWVRQAPGQGLEWMGRINPNSGATDYAHKFQGRVTMSRDTSISTAYMELSRLTSDDTAMYYCARADNYFDIVTGYTSHYFDYWGRGTLVTVSS
VL: EIVLTQSPGTLSLSPGERATLSCRASQSVASAYLAWYQQKPGQAPRLLIYGASSRATDIPHRFSGSGSGTDFTLTISRLEPEDFAVYYCQQYGTSALLTFGGGTKVEIKR
modifications: N-linked glycosylation site at Asn47-Thr49, glycosylated as produced by CHO cells
notes: also called native CHO-rec-KRIX-1; rec-mAb Krix-1
- Kd (recombinant FVIII): 0.14 nM

B2: CHO-recKRIX-1Q (Krix-1 with Asn47 changed to Gln in the heavy chain, produced in CHO cells) (antibody, IgG4, V domains shown)
VH: B1 VH with N28Q
VL: B1 VL
notes: IgG4 kappa; The mutation disrupts the N-linked glycosylation site at Asn47-Thr49; also called Asn47Gln Krix-1; rec-mAb-KRIX-1Q
- Kd (recombinant FVIII): 0.17 nM

B3: CHO-recKRIX-1A (Krix-1 with Thr49 changed to Ala in the heavy chain, produced in CHO cells) (antibody, IgG4, V domains shown)
VH: B1 VH with T30A
VL: B1 VL
notes: IgG4 kappa; The mutation disrupts the N-linked glycosylation site at Asn47-Thr49
- Kd (recombinant FVIII): 0.13 nM

B7: CHO-recKRIX-1 (recombinant Krix-1 produced in CHO cells) (antibody, V domains shown)
VH: QVQLVQSGAEVKKPGASVKVSCKTSGYNFTGYSASGHIFTAYSVHWVRQAPGQGLEWMGRINPNSGATDYAHKFQGRVTMSRDTSISTAYMELSRLTSDDTAMYYCARADNYFDIVTGYTSHYFDYWGRGTLVTVSSASTKGPSVF
VL: EIVLTQSPGTLSLSPGERATLSCRASQSVASAYLAWYQQKPGQAPRLLIYGASSRATDIPHRFSGSGSGTDFTLTISRLEPEDFAVYYCQQYGTSALLTFGGGTKVEIKRTVAAPSVFIFPPS
modifications: here or on the partner: N-linked glycosylation site at Asn47-Thr49, glycosylated as produced by CHO cells
- maximal inhibition of FVIII activity in large excess of antibody (chromogenic assay) [1]: 75 to 85%

The remaining lines, values ahead:

- inhibition of FVIII activity at a final concentration of RHD5 of 100 microgram/ml (plasma) [1]: 97%
- inhibition of FVIII activity at a final concentration of RHD5 of 100 microgram/ml (full length recombinant FVIII) [2]: 98%
B4: RHD5 (human monoclonal antibody from the lymphoblastoid cell line RHD5) (antibody, V domains shown)
VH: QVQLVQSGAEVKKPGSSVMVSCKASGGTFSSFGISWVRQAPGQGLEWVGGIIPIFGTANTARNFQNRVTITADEFTSTAYIRLRSLRSEDTAVYYCVGGRDAYSFDGFDVWGQGTMVTVSSASTKGPSVFP
VL: SSGLTQPHSVSVSPGQTANITCSRDKLGHKFASWYQQKPGQSPALLIYQDSKRPSGIPERFSGSNSGNTATLTISGTQAMDEADYYCQAWDNTTAVFGGGTKLTVLSQPKAAPSVTLFPPS

- inhibition of FVIII activity in plasma (Bethesda assay, chromogenic FVIII assay) [1]: 90%
- inhibition of FVIII activity in plasma (chromogenic assay) [1]: 90%
B5: Krix-1 (human monoclonal antibody KRIX-1 produced in a lymphoblastoid cell line) (antibody, V domains shown)
VH: B7 VH
VL: B7 VL
modifications: here or on the partner: N-linked glycosylation site at Asn47-Thr49, glycosylated as produced by the human lymphoblastoid cell line

- inhibition of FVIII activity in plasma (chromogenic assay) [1]: 50%
- maximal inhibition (plateau inhibition) of FVIII activity in plasma (Bethesda assay, chromogenic FVIII assay) [1]: 50%
B6: deglycosylated KRIX-1 (KRIX-1 treated with N-glycosidase-F) (antibody, IgG4, V domains shown)
VH: B7 VH
VL: B7 VL
modifications: here or on the partner: N-linked glycans removed by N-glycosidase-F (2 U/ml, 37 C, 72 h)
